Test results: article PMC8996344 (Nature immunology, 2021)

T1: GST–regnase-1^D141N (human, UniProt Q5D1E8 1-599, D141N)
T1 sequence (looked up): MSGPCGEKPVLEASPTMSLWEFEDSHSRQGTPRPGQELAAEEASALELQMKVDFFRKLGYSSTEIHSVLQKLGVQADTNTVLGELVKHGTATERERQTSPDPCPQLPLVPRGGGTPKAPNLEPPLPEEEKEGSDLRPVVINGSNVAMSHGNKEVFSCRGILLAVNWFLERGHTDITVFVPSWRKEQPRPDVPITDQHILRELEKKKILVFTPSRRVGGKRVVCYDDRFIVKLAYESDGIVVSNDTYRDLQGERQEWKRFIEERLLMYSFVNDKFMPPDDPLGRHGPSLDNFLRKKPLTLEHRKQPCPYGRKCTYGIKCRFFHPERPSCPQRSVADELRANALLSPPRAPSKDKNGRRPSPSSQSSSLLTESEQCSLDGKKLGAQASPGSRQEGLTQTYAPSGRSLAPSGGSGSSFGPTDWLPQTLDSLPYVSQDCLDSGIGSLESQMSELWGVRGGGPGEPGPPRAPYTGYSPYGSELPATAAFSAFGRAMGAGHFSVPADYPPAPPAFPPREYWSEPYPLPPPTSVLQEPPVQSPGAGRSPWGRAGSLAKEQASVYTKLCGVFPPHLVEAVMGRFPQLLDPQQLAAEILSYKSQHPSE

B1: Roquin-1^aa2-440;E212K (domain or fragment, UniProt Q4VGL6 2-440, looked up)
chain: PVQAPQWTDFLSCPICTQTFDETIRKPISLGCGHTVCKMCLNKLHRKACPFDQTTINTDIELLPVNSALLQLVGAQIPEQQPITLCSGVEDTKHYEEAKKCVEELALYLKPLSSARGVGLNSTTQSVLSRPMQRKLVTLVHCQLVEEEGRIRAMRAARSLGERTVTELILQHQNPQQLSSNLWAAVRARGCQFLGPAMQEEALKLVLLALKDGSALSRKVLVLFVVQRLEPRFPQASKTSIGHVVQLLYRASCFKVTKRDEDSSLMQLKEEFRTYEALRREHDSQIVQIAMEAGLRIAPDQWSSLLYGDQSHKSHMQSIIDKLQTPASFAQSVQELTIALQRTGDPANLNRLRPHLELLANIDPSPDAPPPTWEQLENGLVAVRTVVHGLVDYIQNHSKKGADQQQPPQHSKYKTYMCRDMKQRGGCPRGASCTFAHSQ
B2: Roquin-1^aa2-440;L209Y (domain or fragment, UniProt Q4VGL6 2-440, looked up)
chain: PVQAPQWTDFLSCPICTQTFDETIRKPISLGCGHTVCKMCLNKLHRKACPFDQTTINTDIELLPVNSALLQLVGAQIPEQQPITLCSGVEDTKHYEEAKKCVEELALYLKPLSSARGVGLNSTTQSVLSRPMQRKLVTLVHCQLVEEEGRIRAMRAARSLGERTVTELILQHQNPQQLSSNLWAAVRARGCQFLGPAMQEEALKLVLYALEDGSALSRKVLVLFVVQRLEPRFPQASKTSIGHVVQLLYRASCFKVTKRDEDSSLMQLKEEFRTYEALRREHDSQIVQIAMEAGLRIAPDQWSSLLYGDQSHKSHMQSIIDKLQTPASFAQSVQELTIALQRTGDPANLNRLRPHLELLANIDPSPDAPPPTWEQLENGLVAVRTVVHGLVDYIQNHSKKGADQQQPPQHSKYKTYMCRDMKQRGGCPRGASCTFAHSQ
B3: Roquin-1^aa2-440;M199R (domain or fragment, UniProt Q4VGL6 2-440, looked up)
chain: PVQAPQWTDFLSCPICTQTFDETIRKPISLGCGHTVCKMCLNKLHRKACPFDQTTINTDIELLPVNSALLQLVGAQIPEQQPITLCSGVEDTKHYEEAKKCVEELALYLKPLSSARGVGLNSTTQSVLSRPMQRKLVTLVHCQLVEEEGRIRAMRAARSLGERTVTELILQHQNPQQLSSNLWAAVRARGCQFLGPARQEEALKLVLLALEDGSALSRKVLVLFVVQRLEPRFPQASKTSIGHVVQLLYRASCFKVTKRDEDSSLMQLKEEFRTYEALRREHDSQIVQIAMEAGLRIAPDQWSSLLYGDQSHKSHMQSIIDKLQTPASFAQSVQELTIALQRTGDPANLNRLRPHLELLANIDPSPDAPPPTWEQLENGLVAVRTVVHGLVDYIQNHSKKGADQQQPPQHSKYKTYMCRDMKQRGGCPRGASCTFAHSQ

Target: T1, GST–regnase-1^D141N
Assay: pull-down

Fold reduction of binding against SUMO–roquin-1^aa2-440 wild type, 2 fold:
B1
B2
B3
